We go through three molecules from patent publication US20210277110A1 (Janssen / Centocor, published 2021).

One may read the IC50 as the concentration at which inhibition is half-maximal. Broadly, the Kd is the concentration at which binding is half-saturated. Read a low Kd as a tighter complex. Broadly, the koff is the rate constant with which the complex falls apart. Read a high koff as fast dissociation. Usually kon stands for a measure of how fast the partners come together. Read a high kon as fast association. Usually EC50 stands for the concentration at which the effect is half-maximal. Lower therefore signals greater potency.

Assay [1] addresses T1, Full length human PD1 (huPD1) on cells (human, UniProt Q15116 25-288).
T1 construct: on T cells of human donors in the MLR and CMV assays (functional); also called PD-1 on Jurkat cells
Put plainly: flow cytometry, Jurkat cells. Background: In flow cytometry, cells or beads pass a laser one at a time.
Protocol: (§1) Jurkat cells were stimulated overnight with 20 ng/ml of PHA, harvested, washed, and checked for viability. The cells were then incubated at 6-10° C. for 45-60 minutes with various concentrations of test antibodies, washed and incubated at 6-10° C. for 45-60 minutes with FITC-labeled goat anti-human IgG. The cells were washed and fixed with BD Cytofix, refrigerated overnight and analyzed on a MACSQuant flow cytometer. The percentage of PD-1 positive cells at each antibody concentration was plotted vs log of the antibody concentration and EC₅₀ values were generated in Prism.

Assay [2] addresses T2, Extracellular domain of human PD1 (huPD1-ECD) (human, UniProt Q15116 25-169, biotinylated in the ligand inhibition assay (sites not given)).
T2 construct: Expressed with a hexahistidine tag or as Fc fusion; also called biotinylated PD-1
As to the kind of experiment: MSD ligand inhibition, competitor coated cynoPDL1-ECD.

Assay [3] concerns the target T2, Extracellular domain of human PD1 …. As to the kind of experiment: SPR, human PD-1 affinity.
Protocol: (§2) Affinity measurements using Surface Plasmon Resonance (SPR) were performed using a ProteOn XPR36 system. A biosensor surface was prepared by coupling a mixture of anti-IgG Fc modified alginate polymer layer surface of a GLC chip using the manufacturer instructions for amine-coupling chemistry. […] The collected data were processed and fitted to a Langmuir 1:1 binding model. The result for each mAb was reported in the format of kₒₙ (On-rate), koff (Off-rate) and KD (equilibrium dissociation constant).
Assay [4] has the same target. As to the kind of experiment: MSD ligand inhibition, competitor coated huPDL1-ECD.
Protocol: (§3) The ligand inhibition assay design was MSD (Mescoscale Discovery) based. A MSD plate was directly coated with ligand (cynoPDL1-ECD, huPDL1-ECD or huPDL2-ECD) and incubated overnight at 4° C. The following day, the coating solution was removed and the plate was blocked. […] Depending on the panel of antibodies to be tested, the antibodies were tested as titrations or at a fixed concentration.
Assay [5] concerns the target T1, Full length human PD1 (huPD1) on cells. Put plainly: cell-based or functional assay.
For assay [6], the target named is T3, Extracellular domain of cyno PD1 (cPD1-ECD) (Macaca fascicularis (cynomolgus)).
T3 construct: Expressed with a hexahistidine tag or as Fc fusion; also called cynoPD1-ECD; cynoPD-1-ECD
T3 chain: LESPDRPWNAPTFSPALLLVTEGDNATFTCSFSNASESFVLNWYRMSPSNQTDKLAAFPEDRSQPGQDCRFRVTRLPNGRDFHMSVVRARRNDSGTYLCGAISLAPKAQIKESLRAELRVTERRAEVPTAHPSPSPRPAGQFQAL
Put plainly: SPR ProteOn, cynoPD1-ECD; RANGE high replicate.

Assay [7] addresses T2, Extracellular domain of human PD1 …. As to the kind of experiment: SPR ProteOn, captured mAb, huPD1-ECD analyte.
Assay [8] has as its target T3, Extracellular domain of cyno PD1 …. Put plainly: SPR ProteOn, captured mAb, cynoPD1-ECD analyte.
For assay [9] the target is unchanged. As to the kind of experiment: SPR ProteOn, cynoPD1-ECD; RANGE high replicate.
Protocol: as §2
(§4) STDEV were calculated for 3 or more replicates generated for human and cyno proteins. If less than 3 replicates were calculated, RANGE is indicated. RANGE is defined as the low and high values for the replicates tested. For samples without RANGE or STDEV, only one experiment was performed
Assay [10] concerns the target T2, Extracellular domain of human PD1 …. Put plainly: SPR ProteOn, captured mAb, huPD1-ECD analyte. This is another data set of the same source.
Assay [11] deals with T1, Full length human PD1 (huPD1) on cells. As to the kind of experiment: flow cytometry, PHA-stimulated Jurkat cells.
Protocol: as §1
Assay [12] has as its target T2, Extracellular domain of human PD1 …. Put plainly: MSD ligand inhibition, competitor coated cynoPDL1-ECD. This is another data set of the same source.
Protocol: as §3
Assay [13] has the same target. Put plainly: SPR ProteOn, huPD1-ECD; RANGE high replicate.
Protocol: as §2, §4
Assay [14] deals with T3, Extracellular domain of cyno PD1 …. As to the kind of experiment: SPR ProteOn, captured mAb, cynoPD1-ECD analyte.
The target in assay [15] is T2, Extracellular domain of human PD1 …. As to the kind of experiment: MSD ligand inhibition, competitor coated huPDL2-ECD.
Protocol: as §3
The target is the same in assay [16]. Put plainly: SPR ProteOn, huPD1-ECD; RANGE low replicate.
Protocol: as §2, §4
Assay [17] shares this target. As to the kind of experiment: SPR ProteOn, captured mAb; antigen species not given.
For assay [18] the target is unchanged. As to the kind of experiment: MSD ligand inhibition, competitor coated huPDL1-ECD. This is another data set of the same source.
Protocol: as §3
For assay [19] the target is unchanged. As to the kind of experiment: MSD ligand inhibition, competitor coated cynoPDL1-ECD. The source holds these as a separate data set.
Assay [20] has the same target. Put plainly: SPR ProteOn, huPD1-ECD; RANGE low replicate; RANGE low replicate.
Protocol: as §2, §4
Assay [21] concerns the target T3, Extracellular domain of cyno PD1 …. As to the kind of experiment: SPR ProteOn, cynoPD1-ECD; RANGE low replicate.
Protocol: as §2, §4
The target of assay [22] is T1, Full length human PD1 (huPD1) on cells. As to the kind of experiment: flow cytometry, PHA-stimulated Jurkat cells. The source holds these as a separate data set.
Protocol: as §1
The target of assay [23] is T2, Extracellular domain of human PD1 …. As to the kind of experiment: SPR ProteOn, huPD1-ECD; RANGE high replicate; RANGE high replicate.
Protocol: as §2, §4
For assay [24], the target named is T3, Extracellular domain of cyno PD1 …. Put plainly: SPR ProteOn, cynoPD1-ECD; RANGE low replicate.

Where two headings read alike, the source gives them in different places.

T2 sequence (Q15116 25-169 limits assumed): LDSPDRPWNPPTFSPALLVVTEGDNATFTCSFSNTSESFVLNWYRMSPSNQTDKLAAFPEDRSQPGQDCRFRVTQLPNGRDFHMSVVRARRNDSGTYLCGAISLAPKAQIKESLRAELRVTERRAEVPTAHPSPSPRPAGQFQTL
T1 sequence (Q15116 25-288 limits assumed): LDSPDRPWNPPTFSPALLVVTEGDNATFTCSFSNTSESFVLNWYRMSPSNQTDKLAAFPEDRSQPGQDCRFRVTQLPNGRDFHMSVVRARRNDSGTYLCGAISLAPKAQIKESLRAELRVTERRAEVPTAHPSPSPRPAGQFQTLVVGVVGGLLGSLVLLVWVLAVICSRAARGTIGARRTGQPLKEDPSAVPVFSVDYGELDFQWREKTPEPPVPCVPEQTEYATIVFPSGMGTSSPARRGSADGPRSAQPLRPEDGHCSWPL

B1: PD1B131 (antibody, V domains shown)
VH: EVQLVESGGGLVQPGGSLRLSCAASGFAFSRYDMSWIRLAPGKGLESVAYISGGGANTYYLDNVKGRFTISRDNAKNSLYLQMNSLRAEDTAVYYCASPYLSYFDVWGQGTLVTVSS
VL: EIVMTQSPATLSVSPGERATLSCRASQSLSDYLHWYQQKPGQAPRLLIKSASQSISGIPARFSGSGSGTEFTLTISSLQSEDFAVYYCQNGHSFPYTFGQGTKLEIK
notes: Humanized variant of PD1B28; also called PD1H130/PD1L62
As to B1, in [1], the “Jurkat cell binding relative to PD1B28” value turned out to be 100%. Besides, the IC50 in assay [2] came out at 0.096 µg/mL. In assay [3], this molecule came in with a Kd of 0.127 nM, a koff of 0.000105 s⁻¹ and a kon of 827000 M⁻¹ s⁻¹. In addition, the IC50 in [4] was 0.079 µg/mL.

B2: PD1B132 (antibody, IgG2, V domains shown)
VH: EVQLVESGGGLVQPGGSLRLSCAASGFAFSRYDMSWVRQAPGKGLESVAYISGGGANTYYLDNVKGRFTISRDNAKNSLYLQMNSLRAEDTAVYYCASPYLSYFDVWGQGTLVTVSS
VL: EIVMTQSPATLSVSPGERATLSCRASQSLSDYLHWYQQKPGQAPRLLIKSASQSISGIPARFSGSGSGTEFTLTISSLQSEDFAVYYCQNGHSFPYTFGQGTKLEIK
notes: Humanized variant of PD1B28; also called PD1H129/PD1L62
B2: in assay [1], the “Jurkat cell binding relative to PD1B28” value amounted to 100%. Moreover, the IC50 in assay [2] turned out to be 0.079 µg/mL. In [3], this molecule came in with an equilibrium dissociation constant (Kd) of 0.096 nM, a dissociation rate constant (koff) of 8.8e-05 s⁻¹ and a kon of 914000 M⁻¹ s⁻¹. Moreover, the IC50 in assay [4] is 0.055 µg/mL. The “CMV EC50, nM (IFN-γ induction)” value in [5] is 0.07 nM.

B3: PD1B70 (antibody, V domains shown)
VH: QVQLVQSGAEVKKPGSSVKVSCKASGGTFSSYAISWVRQAPGQGLEWMGGIIPIFGTANYAQKFQGRVTITADESTSTAYMELSSLRSEDTAVYYCARGYVRATGMLDYWGQGTLVTVSS
VL: EIVLTQSPATLSLSPGERATLSCRASQSVSSYLAWYQQKPGQAPRLLIYDASNRATGIPARFSGSGSGTDFTLTISSLEPEDFAVYYCQQRSNWPLTFGQGTKVEIK
notes: Tested as IgG2sigma/kappa; also called PD1H107/PH9L3
Consider B3, for which the Kd turned out to be 138 nM in [6]; 45.4 nM in assay [7]; 123 nM in [8]; 100 nM in assay [9]; 101 nM in assay [10]; 89 nM in assay [14]. The Kd in assay [17] turned out to be 166 nM; in assay [20] it was 42.6 nM; in assay [21], 79.6 nM; in assay [23] it was 48.3 nM; in [24], 109 nM. The koff in assay [6] was found to be 0.0275 s⁻¹; in [7], 0.0349 s⁻¹; in assay [8], 0.0258 s⁻¹; in assay [9], 0.0226 s⁻¹; in assay [10], 0.0418 s⁻¹; in assay [13], 0.0356 s⁻¹. Moreover, the koff in assay [14] is 0.0222 s⁻¹; in assay [16], 0.0341 s⁻¹; in [17], 0.0304 s⁻¹; in assay [21], 0.0218 s⁻¹; in assay [24], 0.0245 s⁻¹. Moreover, the kon in [6] stood at 225000 M⁻¹ s⁻¹; in assay [7], 769000 M⁻¹ s⁻¹; in assay [8], 210000 M⁻¹ s⁻¹; in assay [9] it was 274000 M⁻¹ s⁻¹; in assay [10], 415000 M⁻¹ s⁻¹; in assay [13], 800000 M⁻¹ s⁻¹. For the same molecule, the kon in [14] amounted to 250000 M⁻¹ s⁻¹; in [16], 737000 M⁻¹ s⁻¹; in [17], 184000 M⁻¹ s⁻¹; in [21], 225000 M⁻¹ s⁻¹; in assay [24] it was 199000 M⁻¹ s⁻¹. In addition, the EC50 in assay [11] is 0.69 to 1.32 µg/mL; in assay [22], 0.69 µg/mL. Also, the IC50 in assay [12] is 0.01 to 0.021 µg/mL; in assay [15] it was 0.059 µg/mL; in assay [18], 0.04 µg/mL. Further, in [19], the “percentage ligand not blocked at 1 µg/ml” value was found to be 6%. Also, the “percentage ligand not blocked at 10 µg/ml” value in [19] stood at 6%.
